From patent US6531296B1, “Nuclear tyrosine kinase Rak” (The University of North Carolina at Chapel Hill, priority 1995, dated 2003)
Values belong to the molecule of their own block, whether it stands above or below them.

How the values were obtained:
CSK (p50csk) = assay: In vitro kinase assay: phosphorylation of Rak carboxy-terminal peptides by CSK; assay type: biochemical; settings: relative to wild-type peptide for the mutants
Method: Peptide, Preparation for Phosphorylation. Initially, the OAg was tested for phosphorylation by CSK in an in vitro kinase reaction and was phosphorylated. To further assess which tyrosine was phosphorylated, each of the four tyrosines in the substrate peptide were mutated to phenylalanine by the double-stranded, site-directed mutagenesis method (Deng and Nickoloff. Site-directed mutagenesis of virtually any plasmid by eliminating a unique site. Anal. Biochem., 200:81-88 (1992)). The plasmid was denatured by heating to 100° C. for 5 min and then annealed to a mutagenic primer and a second primer converting an Af/AII site on the plasmid to a Bg/II site. The mutagenic primers for the four tyrosines were: Y45Uf, 5′-[…]-3′ (SEQ ID NO:9); Y163F, 5′-[…]-3′ (SEQ ID NO:10); Y490F, 5′-TGAAGAC-TTTTTTGAAACAG-3′ (SEQ ID NO:11); and Y497F, 5′-[…]-3′ (SEQ ID NO:12).
Purified μ50^csk and Enzyme Assays. p50^csk was produced in S/9 cells from a Baculovirus vector containing the full-length csk cDNA (Okada et al., J. Biol. Chem; 264:20886-20893(1989)), purified according to Murphy et al. (Mol. Cell. Biol., 13:5290-5300 (1993), and mixed with the different peptides of Rak. These peptides correspond to the last 62 amino acids of the kinase, containing four tyrosine residues (Y450, Y463, Y490, and […]), and mutant peptides where each of the four tyrosines was […]. The phosphorylation of the native peptide was compared to the that of the mutant peptides. For the in vitro kinase assay, different amounts of p50^csk were mixed with different amount of the peptides in a reaction buffer (10 mM HEPES (pH 7.4) 10 mM MnCl21. Four μg bovine serum albumin were added to the 20-μl mixture, and the reaction was initiated with the addition of AIP to 1 μm and 10 μCl of 1 γ-^32P)ATP (3000 Ci/mmol; Amersham). Tubes were incubated at 30° C. for 15 min, and the reaction was stopped by the addition of SDS-PAGE sample buffer. The samples were boiled and analyzed on 15% SDS-PAGE gels, which were fixed, stained, and exposed to film at […].
The Carboxy Terminus of Rak Is Phosphorylated by CSK. Since CSK phosphorylates the carboxy terminal tyrosines of several other Src-related kinases, the ability of CSK to phosphorylate a recombinant carboxy-terminal peptide of Rak was analyzed. […] Since this peptide contained four tyrosines at positions 450, 463, 490, and 497, each tyrosine was individually mutated to phenylalanine and then the peptides were assayed for phosphorylation by CSK. […] Indeed, this residue corresponds to the CSK phosphorylation site for the other Src family members with regard to its localization in regard to the kinase domain, although the sequence context of this tyrosine differs from that of the other Src-like kinases.

[1] = target: T1, RbABC (Rb amino acids 379-928, A/B pocket and carboxy-terminus) (Homo sapiens, UniProt P06400); assay: Rb in vitro binding assay, GST-RbABC; settings: for Rb binding of Rak deletion forms: Rb fusion protein not specified
T1 construct: Rb fusion proteins encoding amino acids 379-928 (RbABC); made in house; host or cells: pGEX-4T plasmid
T1 sequence (P06400 379-928): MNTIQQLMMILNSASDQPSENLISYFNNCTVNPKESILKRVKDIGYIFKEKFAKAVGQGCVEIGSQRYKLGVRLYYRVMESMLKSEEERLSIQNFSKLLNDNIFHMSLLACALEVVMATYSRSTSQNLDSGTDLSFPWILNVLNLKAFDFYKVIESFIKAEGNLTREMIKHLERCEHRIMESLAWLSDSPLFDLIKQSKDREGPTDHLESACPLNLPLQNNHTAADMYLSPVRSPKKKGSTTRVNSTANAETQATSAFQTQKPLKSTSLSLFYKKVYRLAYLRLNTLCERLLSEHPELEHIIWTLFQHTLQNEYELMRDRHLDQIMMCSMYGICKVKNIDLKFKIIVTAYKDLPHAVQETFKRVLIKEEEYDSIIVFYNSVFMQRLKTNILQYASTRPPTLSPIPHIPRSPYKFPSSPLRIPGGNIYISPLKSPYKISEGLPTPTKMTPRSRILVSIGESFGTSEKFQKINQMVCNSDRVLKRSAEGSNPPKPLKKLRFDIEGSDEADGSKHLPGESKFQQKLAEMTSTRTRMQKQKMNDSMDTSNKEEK
Method: (§1) Affinity Precipitations. DNA fragments encoding the amino terminal region of Rak were prepared using the polymerase chain reaction with Pyrococcus furiosus DNA polymerase (Stratagene), and cloned into the pGEX-4T plasmid (Pharmacia). Rb fusion proteins encoding amino acids 379-928 (RbABC, containing the A/B pocket region and the COOH-terminal domain) and 780-928 (RbC for COOH terminal domain only), were prepared similarly. The GST fusion proteins were induced and purified according to the manufacturer's instructions, and were analyzed by SDS-PAGE to ensure that an equal amount of protein was used for the affinity precipitation procedure.
The same procedure was followed for Rb in vitro binding assays, except that the Rb-GST fusion proteins were incubated in the in vitro translated forms of Rak in NP-40 buffer containing 0.5% fraction V bovine serum albumin (Boehringer Mannheim). After three washes with the same buffer, bound proteins were analyzed by SDS-PAGE and detected by autoradiography. Rak was in vitro translated using the TnT-coupled transcription/translation system (Promega) with 2 ug of the pAlt-Rak plasmid. The Rak (1-152) construct was prepared by digesting the pAlt-Rak plasmid with EcoRI to obtain the 5′ EcoRI fragment of Rak.
An in vitro binding reaction was then used to further identify the essential components for the Rak-Rb interaction. In vitro translated Rak was incubated with two Rb-GST fusion proteins, where one encoded amino acids 379-928, spanning the A/B pocket and carboxy-terminus (RbABC), while the other fusion protein encoded amino acids 780-928, and represented only the carboxy-terminus (RbC). […] As a control, the Src protein was in vitro translated and subjected to the same binding reaction, and no binding of Src to any portion of Rb was detected (data not shown).

[2] = target: T2, RbC (Rb amino acids 780-928, carboxy-terminus) (Homo sapiens, UniProt P06400); assay: Rb in vitro binding assay, GST-RbC; settings: in vitro translated protein
T2 construct: the other fusion protein encoded amino acids 780-928; made in house; host or cells: pGEX-4T plasmid
T2 sequence (P06400 780-928): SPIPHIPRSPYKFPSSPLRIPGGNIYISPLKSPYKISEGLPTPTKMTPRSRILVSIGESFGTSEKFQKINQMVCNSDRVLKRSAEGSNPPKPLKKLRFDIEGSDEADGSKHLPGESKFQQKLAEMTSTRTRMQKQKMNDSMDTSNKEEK
Method: as §1
The same procedure was followed for Rb in vitro binding assays, except that the Rb-GST fusion proteins were incubated in the in vitro translated forms of Rak in NP-40 buffer containing 0.5% fraction V bovine serum albumin (Boehringer Mannheim). After three washes with the same buffer, bound proteins were analyzed by SDS-PAGE and detected by autoradiography. […]
An in vitro binding reaction was then used to further identify the essential components for the Rak-Rb interaction. […] As a control, the Src protein was in vitro translated and subjected to the same binding reaction, and no binding of Src to any portion of Rb was detected (data not shown).

B6: full-length Rak: in vitro translated full-length Rak protein (SEQ ID NO:2) (protein)
chain: MSNICQRLWEYLEPYLPCLSTEADKSTVIENPGALCSPQSQRHGHYFVALFDYHAPTAEELSFRAGDKLQVLDTLHEGWWFARHLEKRRDGSSQQLQGYIPSNYVAEDRSLQAEAWFFGAIRRSDAEKQLLYSENKTGSFLIRESESQKGEFSLSVLDGAVVKHYRIKRLDEGGFFLTRRRIFSTLNEFVSHYTKTSDGLCVKLGKPCLKIQVPAPFDLSYKTVDQWEIDRNSIQLLKRLGSGQFGEVWEGLWNNTTPVAVKTLKPGSMDPNDFLREAQIMKNLRHPKLIQLYAVCTLEDPIYIITELMRHGSLQEYLQNDTGSKIHLTQQVDMAAQVASGMAYLESRNYIHRDLAARNVLVGEHNIYKVADFGLARVFKVDNEDIYESRHEIKLPVKWTAPEAIRSNKFSIKSDVWSFGILLYEIITYGKMPYSGMTGAQVIQMLAQNYRLPQPSNCPQQFYNIMLECWNAEPKERPTFETLRWKLEDYFETDSSYSDANNFIR
binding to RbABC fusion protein ([1]; in vitro translated protein, SDS-PAGE and autoradiography): bound efficiently | binding to RbC protein, fold less than to RbABC [2]: approximately 5 fold

B7: Rak (amino acids 1-152): in vitro translated amino-terminal fragment of Rak with unique amino-terminal region and SH3 domain (protein, UniProt P42685 1-152, looked up, fragment)
chain: MSNICQRLWEYLEPYLPCLSTEADKSTVIENPGALCSPQSQRHGHYFVALFDYQARTAEDLSFRAGDKLQVLDTLHEGWWFARHLEKRRDGSSQQLQGYIPSNYVAEDRSLQAEPWFFGAIGRSDAEKQLLYSENKTGSFLIRESESQKGEF
less efficiency of binding to RbABC fusion protein ([1]; compared with full-length Rak): approximately 30% | binding to RbC protein [2]: no longer detectable

B8: Rak with amino acids 1-110 deleted: Rak lacking the unique N-terminal region and the SH3 domain (protein, UniProt P42685 111-505, looked up, fragment)
chain: LQAEPWFFGAIGRSDAEKQLLYSENKTGSFLIRESESQKGEFSLSVLDGAVVKHYRIKRLDEGGFFLTRRRIFSTLNEFVSHYTKTSDGLCVKLGKPCLKIQVPAPFDLSYKTVDQWEIDRNSIQLLKRLGSGQFGEVWEGLWNNTTPVAVKTLKPGSMDPNDFLREAQIMKNLRHPKLIQLYAVCTLEDPIYIITELMRHGSLQEYLQNDTGSKIHLTQQVDMAAQVASGMAYLESRNYIHRDLAARNVLVGEHNIYKVADFGLARVFKVDNEDIYESRHEIKLPVKWTAPEAIRSNKFSIKSDVWSFGILLYEIITYGKMPYSGMTGAQVIQMLAQNYRLPQPSNCPQQFYNIMLECWNAEPKERPTFETLRWKLEDYFETDSSYSDANNFIR
Rb binding of Rak deletion forms [1]: minimally detectable

Further lines, results first:

phosphorylation by CSK (CSK (p50csk)): readily phosphorylated | phosphorylation by CSK (CSK (p50csk); listed as OAg): phosphorylated
B1: wild-type peptide: hexahistidine fusion protein containing the 62 carboxy-terminal amino acids of Rak (protein, UniProt P42685 444-505, looked up, fragment)
chain: QMLAQNYRLPQPSNCPQQFYNIMLECWNAEPKERPTFETLRWKLEDYFETDSSYSDANNFIR
modifications: hexahistidine tag
notes: hexahistidine fusion protein containing the 62 carboxy-terminal amino acids of Rak

phosphorylation by CSK (CSK (p50csk)): about one-half
B2: mutant at position 490: 62-amino-acid carboxy-terminal Rak peptide with tyrosine 490 mutated to phenylalanine (protein, UniProt P42685 444-505, looked up, variant Y490F)
chain: QMLAQNYRLPQPSNCPQQFYNIMLECWNAEPKERPTFETLRWKLEDFFETDSSYSDANNFIR
modifications: C-terminal 62 residues His tag
notes: 62-amino-acid carboxy-terminal Rak peptide with tyrosine 490 mutated to phenylalanine

phosphorylation by CSK (CSK (p50csk)): barely detectable
B3: 497 mutant: 62-amino-acid carboxy-terminal Rak peptide with tyrosine 497 mutated to phenylalanine (protein, UniProt P42685 444-505, looked up, variant Y497F)
chain: QMLAQNYRLPQPSNCPQQFYNIMLECWNAEPKERPTFETLRWKLEDYFETDSSFSDANNFIR
modifications: C-terminal 62 residues His tag
notes: 62-amino-acid carboxy-terminal Rak peptide with tyrosine 497 mutated to phenylalanine

phosphorylation by CSK (CSK (p50csk)): about one-half
B4: mutant at position 450: 62-amino-acid carboxy-terminal Rak peptide with tyrosine 450 mutated to phenylalanine (protein, UniProt P42685 444-505, looked up, variant Y450F)
chain: QMLAQNFRLPQPSNCPQQFYNIMLECWNAEPKERPTFETLRWKLEDYFETDSSYSDANNFIR
modifications: C-terminal 62 residues His tag
notes: 62-amino-acid carboxy-terminal Rak peptide with tyrosine 450 mutated to phenylalanine

Rb binding of Rak deletion forms [1]: no change in Rb binding
B5: Rak with amino acids 1-46 deleted: Rak lacking the unique N-terminal region (LPCLSTE sequence removed) (protein, UniProt P42685 47-505, looked up, fragment)
chain: FVALFDYQARTAEDLSFRAGDKLQVLDTLHEGWWFARHLEKRRDGSSQQLQGYIPSNYVAEDRSLQAEPWFFGAIGRSDAEKQLLYSENKTGSFLIRESESQKGEFSLSVLDGAVVKHYRIKRLDEGGFFLTRRRIFSTLNEFVSHYTKTSDGLCVKLGKPCLKIQVPAPFDLSYKTVDQWEIDRNSIQLLKRLGSGQFGEVWEGLWNNTTPVAVKTLKPGSMDPNDFLREAQIMKNLRHPKLIQLYAVCTLEDPIYIITELMRHGSLQEYLQNDTGSKIHLTQQVDMAAQVASGMAYLESRNYIHRDLAARNVLVGEHNIYKVADFGLARVFKVDNEDIYESRHEIKLPVKWTAPEAIRSNKFSIKSDVWSFGILLYEIITYGKMPYSGMTGAQVIQMLAQNYRLPQPSNCPQQFYNIMLECWNAEPKERPTFETLRWKLEDYFETDSSYSDANNFIR
